Measurements published in patent US20140038292.

Test system: T1, Tol1 transposase (851 aa) (Oryzias latipes)
T1 sequence: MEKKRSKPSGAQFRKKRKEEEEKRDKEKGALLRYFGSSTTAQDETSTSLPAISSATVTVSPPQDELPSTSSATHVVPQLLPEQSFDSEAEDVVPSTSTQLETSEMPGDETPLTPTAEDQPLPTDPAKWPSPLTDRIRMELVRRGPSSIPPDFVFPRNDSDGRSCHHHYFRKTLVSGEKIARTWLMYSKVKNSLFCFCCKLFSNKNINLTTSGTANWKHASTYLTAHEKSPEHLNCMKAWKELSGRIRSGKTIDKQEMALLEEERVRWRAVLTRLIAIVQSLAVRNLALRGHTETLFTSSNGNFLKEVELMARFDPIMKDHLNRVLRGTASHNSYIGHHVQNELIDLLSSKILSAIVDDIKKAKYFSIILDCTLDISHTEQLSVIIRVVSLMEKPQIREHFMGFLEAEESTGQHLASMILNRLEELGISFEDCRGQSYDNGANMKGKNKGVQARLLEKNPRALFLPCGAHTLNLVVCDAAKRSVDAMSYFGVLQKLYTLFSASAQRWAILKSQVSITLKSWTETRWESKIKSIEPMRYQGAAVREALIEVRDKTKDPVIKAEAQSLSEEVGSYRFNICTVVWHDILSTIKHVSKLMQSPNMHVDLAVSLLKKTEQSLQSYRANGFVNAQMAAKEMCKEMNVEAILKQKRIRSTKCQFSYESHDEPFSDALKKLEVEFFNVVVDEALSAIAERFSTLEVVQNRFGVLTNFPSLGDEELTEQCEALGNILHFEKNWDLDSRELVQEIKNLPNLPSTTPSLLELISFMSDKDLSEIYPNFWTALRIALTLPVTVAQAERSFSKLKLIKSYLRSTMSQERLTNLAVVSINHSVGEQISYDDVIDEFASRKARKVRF
Assay: cell_activity
Conditions: HeLa, donor 200 ng, helper 800 ng; 8 bp TSD at insertions

Question: For “Tol1-tyr element (1855 bp), donor plasmid”, which activity (net G418-resistant colonies) is on record?
Answer: 3660
